Target: FLS2 receptor (in corn tissue) (corn (taken from the assay tissue; …)
Assay: cell-based or functional assay

B1: Bt.Flg22-Syn03, Mutant D1Q (SEQ ID NO: 573) (peptide)
peptide: QRLSSGKRINSASDDAAGLAIA
Avg. Activity (%), ROS activity in corn (5828 YX) at 5 nM polypeptide, relative to Bt.4Q7Flg22: 122%

Source: patent publication US20190023750A1 (SPOGEN BIOTECH, published 2019)
